According to paper PMC3608554:

Target: PLCg2 (UniProt P16885)
Assay: anti-PLCg2 IP, anti-BANK1 blot
Details: reference: wild type; sites Y484,Y488

BANK1 (from UniProt Q8NDB2) Y484F/Y488F
binding against the reference: weaker
